Here are results for two molecules from paper PMC1635294.

Like-named read-outs stand apart in the source and are kept apart here.

For data set [1], the target named is T1, SLBP (HBP), His-tagged (human, UniProt Q14493 1-270). Kind of data set: competition.
The target in data set [2] is T1, SLBP (HBP), His-tagged. As to the kind of experiment: competition. The source holds these as a separate data set.

B1: wild-type stem-loop competitor (structured_RNA)
RNA: GGAGCUCAACAAAAGGCCCUUUUCAGGGCCACCC
As for B1, the binding result in the data set with SLBP (HBP), His-tagged [1] is “binds”.

B2: mutated stem-loop competitor (*) (structured_RNA)
RNA: GGAGCUCAACAAAACCGGAAAGCCUUCCGGACCC
Turning to B2, the binding result with SLBP (HBP), His-tagged [2] is reported as “no binding”.
